Laboratory results: patent US6576753B1, “DNA encoding human leukotriene C4 synthase” (The Brigham and Women's Hospital, Inc., priority 1994, dated 2003)
Residue numbers refer to the chain shown, from its start. Like-named read-outs stand apart in the source and are kept apart here.

Experiments:
LTC4 synthase [1] = target: T1, LTC4 synthase (Homo sapiens, UniProt Q16873); experiment: Dose-response assay using MK886: conversion of LTA4-ME to LTC4-ME by lysates of transfected COS-7 cells; type: biochemical
T1 construct: expressed in transfected cells; host or cells: COS-7 cells (pcDNA3 clone from KG-1 library), cell lysate
T1 sequence (Q16873 1-150): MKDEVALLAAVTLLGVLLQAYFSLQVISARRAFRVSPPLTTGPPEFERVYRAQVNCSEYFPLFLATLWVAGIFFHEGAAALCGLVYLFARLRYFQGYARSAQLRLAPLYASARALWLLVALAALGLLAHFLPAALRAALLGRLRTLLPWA
Protocol: After 2.8 min more, solvent B was increased linearly to 90% over 2 min and was maintained at this level for an additional 10 min. UV absorbance at 280 nm and the UV spectra were recorded simultaneously. The retention times for PGB2 and LTC4-ME were 8.5 and 10.1 min, respectively.
DOSE-RESPONSE ASSAY USING MK886: Cell lysates of the COS-7 cell transfectant containing SEQ ID NO.:1 were incubated with 20 micromolar LTA4-ME, 20 mM GSH, 5 mM MgCl2 in HEPES buffer (pH 7.6), in the presence of 0-10 micromolar MK886 for 10 minutes at room temperature. Reactions were stopped by addition of 2 volumes of methanol containing 200 ng PGB2. Samples were analyzed by RP-HPLC.

LTC4 synthase [2] = target: T1, LTC4 synthase; details: high doses; Lam et al.; cited from earlier work
LTC4 synthase [3] = experiment: Conjugation of LTA4-ME with GSH by solubilized microsomes of COS cells transfected with wild-type or mutant LTC4 synthase; details: for Function / Km: COS cell microsome; for conjugation function of transfected COS cell microsomes: compared to wild-type construct
Protocol: OF THE EXPRESSED PROTEINS: COS-7 cells were transfected with either wild-type LTC4 synthase cDNA or the mutated LTC4 synthase cDNA by DEAE-dextran transfection (Lam et al., Proc. Natl. Acad. Sci. USA., 91:7663, 1994). Three days after transfection, the cells were harvested by treatment with trypsin and suspended in microsomal buffer (50 mM HEPES buffer pH 7.9 containing 2 mM EDTA and 10 mM β-mercaptoethanol) at a concentration of 5×10^6 cells/ml. The cells were lysed by sonication with a Branson microtip sonicator (Danbury, Conn.) at a setting of 7. Cell lysates were centrifuged at 100,000×g for 60 min at 4° C., and the pellets (microsomes) were resuspended in microsomal buffer and were solubilized by the addition of 0.4% Triton X-102, 0.4% sodium deoxycholate (DOC), and 10% glycerol and stirring at 4° C. for 45 min.
The function of each mutant enzyme as well as the wild-type enzyme was first screened by the incubation of 1-10 μl of solubilized COS cell microsomes with 10 mM GSH and 20 μM LTA4-ME in 200 μl 50 mM HEPES buffer containing 10 mM MgCl2, pH 7.6. The reactions were carried out at room temperature for 10 min and stopped by the addition of 3 vol methanol containing 200 ng prostaglandin B2 (PGB2) as an internal standard. LTC4-ME levels in the samples were determined with high performance liquid chromatography (HPLC).
Reverse phase (RP)-HPLC was carried out with a model 126 dual pump system and model 167 scanning UV detector (Beckman Instruments) controlled by an Gateway 2000 P4D66 computer equipped with Beckman System Gold software. Samples were applied to a 5-μm 4.6×250-mm C18 Ultrasphere reverse phase column (Beckman Instruments) equilibrated with a solvent of methanol/acetonitrile/water/acetic acid (10:15:100:0.2, v/v), pH 6.0 (solvent A). Immediately after the sample was injected, the column was eluted at a flow rate of 1 ml/min with a programmed concave gradient (System Cold curve 6) to 20% solvent A and 80% solvent B (pure methanol) over 0.2 min with continuation isocratically for 5.8 min. Beginning at 6 min, solvent B was increased linearly to 100% over 0.2 min and was maintained at this level for 7 min more. The ultraviolet absorbance at 280 nm and the ultraviolet spectra were recorded simultaneously. The retention times for PGB2 and LTC4-ME were 7.4 and 8.9 min, respectively. LTC4-ME was quantitated by calculating the ratio of the peak area to the area of the internal standard PGB2.

LTC4 synthase [4] = experiment: Enzyme kinetics of purified recombinant wild-type or mutant LTC4 synthase; type: biochemical, human; details: purified recombinant enzyme
Protocol: (§1) PURIFICATION AND KINETIC ANALYSIS OF SELECTED EXPRESSED PROTEINS: Recombinant LTC4 synthases were purified by S-hexyl GSH agarose affinity chromatography (Lam et al., Eur. J. Biochem., 238:606, 1996). Solubilized microsomes were loaded onto a 2.5-cm×1.5-cm open bed of S-hexyl GSH resin equilibrated with 50 mM HEPES, 1 mM EDTA, 5 mM β-mercaptoethanol, 0.1% Triton X-102, 10% glycerol, pH 7.6 (Buffer A) at 4° C. The column was washed sequentially with 5 volumes each of buffer A/0.3 M NaCl/20 mM GSH/0.1% DOC, buffer A/2.5 mM S-hexyl GSH/2.5 mM S-octyl GSH/0.1% DOC, and buffer A/0.1% DOC; and the enzyme was eluted with 5 fractions of 1 volume each of 15 mM probenecid in buffer A containing 0.1% DOC. The enzyme was purified nearly to homogeneity as determined by the presence in silver stained SDS-PAGE gels of a predominant 18-kDa protein band with a minor 34-kDa band; only the 18-kDa band interacted with anti-LTC4 synthase antibody on immunoblot analysis. After sequential concentration and dilution with a Microsep 10K centrifugal concentrator (Filtron Technology Corp., Northborough, Mass.) to remove probenecid, the protein concentration was estimated by staining a SDS-PAGE gel of the purified enzyme and a standard amount of lysozyme resolved in the same gel with Coomassie blue dye and comparing their intensities.
(§2) To examine the enzyme kinetics of recombinant wild-type or mutant LTC4 synthase, 3-100 ng portions of purified enzyme were incubated in 200 μl of HEPES buffer, pH 7.6, containing 10 mM MgC'2 with either 20 μM LTA4-ME and various concentration of GSH or with 10 mM GSH and various concentrations of LTA4-ME for 2 min at room temperature. The reactions were terminated by the addition of 3 vol of methanol containing 200 ng PGB2. Samples were then analyzed for LTC4-ME by RP-HPLC.

LTC4 synthase [5] = target: T2, LTC4 synthase (Homo sapiens, UniProt Q16873, Y93F); experiment: Effect of pH on enzymatic conjugation by wild-type and mutant enzyme; type: biochemical; details: microsomal assay, 5-fold more Y93F
T2 construct: made in house; host or cells: COS-7 cells
T2 sequence (Q16873 1-150 Y93F): T1 sequence (Q16873 1-150) with Y93F
Protocol: The study the effect of pH on enzymatic conjugation by wild-type and mutant enzyme, 1-μl or 5-μl (Y93F) samples of solubilized COS cell microsomes were incubated with 10 μM LTA4-ME and 10 mM GSH in bis-Tris propane buffer containing 10 mM MgCl2 at various pH levels. The reactions were carried out at room temperature for 2 min and were stopped by the addition of 3 vol of methanol and 10 μl of acetic acid. Product generation was quantitated by RP-HPLC as described above.

LTC4 synthase [6] = target: T2, LTC4 synthase; experiment: Enzyme kinetics of purified recombinant wild-type or mutant LTC4 synthase; type: biochemical
Protocol: as §1, §2

[7] = Binding of mutant protein to S-hexyl GSH agarose column; details: eluted with probenecid
Protocol: as §1

| Compound | Function (LTC4 synthase [3]) | Km (LTC4 synthase [3]; read-out: Km GSH) | Km (LTC4 synthase [3]; read-out: Km LTA4-ME) | Vmax LTC4-ME (LTC4 synthase [4]) | Km (LTC4 synthase [4]; read-out: Km GSH) | Km (LTC4 synthase [4]; read-out: Km LTA4-ME) | conjugation function of transfected COS cell microsomes (LTC4 synthase [3]) | also measured |
| --- | --- | --- | --- | --- | --- | --- | --- | --- |
| CC(C)c1ccc2c(c1)c(SC(C)(C)C)c(CC(C)(C)C(=O)O)n2Cc1ccc(Cl)cc1 [MK-886] |  |  |  |  |  |  |  | IC50 (LTC4 synthase [1]; 20 μM LTA4-ME, COS cell lysates, read-out: IC50, inhibition of conversion of LTA4-ME to LTC4-ME): < 3000 nM; inhibition of enzyme activity (LTC4 synthase [1]; at 10 μM): more than 90%; IC50 (LTC4 synthase [1]; transfected COS cell lysates, read-out: ID50, inhibition of LTC4 synthase activity): ~3000 nM; inhibition of LTC4 synthase activity (LTC4 synthase [2]): could also inhibit LTC4 synthase activity when administered at high doses |
| WT: recombinant wild-type human LTC4 synthase (SEQ ID NO.:2) | 100 % of WT | 500 to 2000 µM | 6 to 20 µM | 51.3 µmol/min/mg | 1400 µM | 7.4 µM |  |  |
| Y93F: LTC4 synthase point mutant | 5 % of WT | 10000 µM | 20 µM | 1.4 µmol/min/mg | 9900 µM | 5.4 µM | associated with a reduction in function | pH optimum of conjugation (LTC4 synthase [5]): A shift in the optimum to a higher pH; reduction in Vmax (LTC4 synthase [6]; isolated recombinant enzyme, versus wild type): greater than 90%; catalytic efficiency relative to wild-type enzyme (LTC4 synthase [6]; purified recombinant enzyme): 1/260 |
| R51H | 100 % of WT | 3800 µM | 6.4 µM | 20.0 µmol/min/mg | 1500 µM | 6.3 µM | activity was not diminished |  |
| R51T: LTC4 synthase point mutant | 0 % of WT |  |  | Inactive |  |  | do not show conjugation activity | conjugation function of transfected COS cell microsomes (LTC4 synthase [3]; listed as Arg 51 to threonine): abolished the functional activity; binding to S-hexyl GSH agarose column [7]: bound to S-hexyl GSH |
| C[C@H](C#Cc1ccc(Oc2ccc(F)cc2)o1)N(O)C(N)=O [A79175] |  |  |  |  |  |  |  | effect on LTC4 synthase activity in COS cell lysates (LTC4 synthase [1]; at a concentration of 10 μM): did not affect LTC4 synthase activity |
| C82V: LTC4 synthase point mutant | 100 % of WT | 2000 µM | 10.9 µM | 37.7 µmol/min/mg | 900 µM | 6.3 µM | do not affect conjugation function | conjugation function of transfected COS cell microsomes (LTC4 synthase [3]; listed as C82 to V82): None of the mutations affected conjugation function |
